Where two headings read alike, the source gives them in different places.
Key:
[1] = design: species or system CD-1 mice; details: mouse, in vivo, 10.5 mg/kg
Procedure: Male CD-1 mice of 8 to 9 weeks of age (18-20 g body weight) were acclimatized for 7 days before being enrolled into the study. Mice were weighed and dosed at 5 μL of dosing material per 20 g of body weight. […] Animals were anesthetized and held with the dorsal end facing down. Dosing materials were administered at a rate of ˜1 μL/10 seconds split equally through both nostrils. Total dosing time ranged from 1.8 to 2.3 minutes. After a nominal 10 minutes post-dose, animals were sacrificed followed by blood collection, perfusion, and tissue collection. The olfactory bulbs were included in the collection of the brain tissues. All tissues were stored at nominal −80° C. until assay. Perfusate contains: 1×PBS pH 7.4, +2.7% w/v BSA+100 U/mL heparin. Lung/Liver/Kidney/Spleen. […] To evaluate recovery and matrix differences between the calibration matrices and study test samples, a spiking recovery experiment was performed (Table 2). […] The RFU correction factor was determined by dividing the response of each analyte spiked into BALB-c lysates (preparation procedures described below) by the response of each analyte spiked into CD-1 homogenate and then extracted. For kidney and liver matrices, there was enough material available to evaluate spiking recovery at two different levels. […] Read plate at Ex/Em 635/675 4. […]

[2] = design: species or system CD-1 mice; details: mouse, in vivo
Procedure: Male CD-1 mice of 8 to 9 weeks of age (18-20 g body weight) were acclimatized for 7 days before being enrolled into the study. Mice were weighed and dosed at 5 μL of dosing material per 20 g of body weight. […] Animals were anesthetized and held with the dorsal end facing down. Dosing materials were administered at a rate of ˜1 μL/10 seconds split equally through both nostrils. Total dosing time ranged from 1.8 to 2.3 minutes. After a nominal 10 minutes post-dose, animals were sacrificed followed by blood collection, perfusion, and tissue collection. The olfactory bulbs were included in the collection of the brain tissues. All tissues were stored at nominal −80° C. until assay. Perfusate contains: 1×PBS pH 7.4, +2.7% w/v BSA+100 U/mL heparin. […] Read plate at Ex/Em 635/675.

Substance: Sialong: polysialyated insulin conjugate by N-terminal (B-chain) aldehyde conjugation using 15 kDa CAO; tested labelled with AF-647 (Sialong^AF647)
- Lung % Dose [1]: 0.01 % Dose
- Plasma % Dose ([2]; 2.1 mg/kg): 0.0 % Dose
- Plasma % Dose ([2]; 10.5 mg/kg): 0.01 % Dose
